# Data as given in patent US20110118131A1 (published 2011).
# T1: Ep-CAM (UniProt P16422 24-265, limits assumed)
# T1 construct: Antigen of the Biacore analysis of ING-1 variants
# T1 sequence (looked up): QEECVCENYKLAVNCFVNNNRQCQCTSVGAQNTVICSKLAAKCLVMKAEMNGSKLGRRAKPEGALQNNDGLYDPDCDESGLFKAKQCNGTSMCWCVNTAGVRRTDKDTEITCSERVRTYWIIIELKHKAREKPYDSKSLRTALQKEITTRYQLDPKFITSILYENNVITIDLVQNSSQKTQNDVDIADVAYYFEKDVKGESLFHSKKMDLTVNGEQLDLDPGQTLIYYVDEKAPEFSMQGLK
# Target: T1, Ep-CAM
# Experiment: Biacore, Fab periplasmic extract
fold difference in affinity vs original [fold],binding result,Binder
0.02,–,"ING-1 heavy chain N52H (Fab, V domains shown) VH: QIQLVQSGPELKKPGETVKISCKASGYTFTKYGMNWVKQAPGKGLKWMGWIHTYTEEPTYGDDFKGRFAFSLETSASTANLQINNLKSEDTATYFCARFGSAVDYWGQGTSVTVSS VL: DIVMTQAAFSNPVTLGTSGSISCRSSKSLLHSNGITYLYWYLQKPGQSPQLLIYQMSNLASGVPDRFSSSGSGTDFTLRISRVEAEDVGVYYCAQNLELPRTFGGGTKLEMKR"
–,no binding,"ING-1 heavy chain T53E (Fab, V domains shown) VH: QIQLVQSGPELKKPGETVKISCKASGYTFTKYGMNWVKQAPGKGLKWMGWINEYTEEPTYGDDFKGRFAFSLETSASTANLQINNLKSEDTATYFCARFGSAVDYWGQGTSVTVSS VL: DIVMTQAAFSNPVTLGTSGSISCRSSKSLLHSNGITYLYWYLQKPGQSPQLLIYQMSNLASGVPDRFSSSGSGTDFTLRISRVEAEDVGVYYCAQNLELPRTFGGGTKLEMKR"
–,no binding,"ING-1 heavy chain T53D (Fab, V domains shown) VH: QIQLVQSGPELKKPGETVKISCKASGYTFTKYGMNWVKQAPGKGLKWMGWINDYTEEPTYGDDFKGRFAFSLETSASTANLQINNLKSEDTATYFCARFGSAVDYWGQGTSVTVSS VL: DIVMTQAAFSNPVTLGTSGSISCRSSKSLLHSNGITYLYWYLQKPGQSPQLLIYQMSNLASGVPDRFSSSGSGTDFTLRISRVEAEDVGVYYCAQNLELPRTFGGGTKLEMKR"
–,no binding,"ING-1 heavy chain N52W (Fab, V domains shown) VH: QIQLVQSGPELKKPGETVKISCKASGYTFTKYGMNWVKQAPGKGLKWMGWIWTYTEEPTYGDDFKGRFAFSLETSASTANLQINNLKSEDTATYFCARFGSAVDYWGQGTSVTVSS VL: DIVMTQAAFSNPVTLGTSGSISCRSSKSLLHSNGITYLYWYLQKPGQSPQLLIYQMSNLASGVPDRFSSSGSGTDFTLRISRVEAEDVGVYYCAQNLELPRTFGGGTKLEMKR"
–,no binding,"ING-1 heavy chain T28Q (Fab, V domains shown) VH: QIQLVQSGPELKKPGETVKISCKASGYQFTKYGMNWVKQAPGKGLKWMGWINTYTEEPTYGDDFKGRFAFSLETSASTANLQINNLKSEDTATYFCARFGSAVDYWGQGTSVTVSS VL: DIVMTQAAFSNPVTLGTSGSISCRSSKSLLHSNGITYLYWYLQKPGQSPQLLIYQMSNLASGVPDRFSSSGSGTDFTLRISRVEAEDVGVYYCAQNLELPRTFGGGTKLEMKR"
–,no binding,"ING-1 heavy chain N52K (Fab, V domains shown) VH: QIQLVQSGPELKKPGETVKISCKASGYTFTKYGMNWVKQAPGKGLKWMGWIKTYTEEPTYGDDFKGRFAFSLETSASTANLQINNLKSEDTATYFCARFGSAVDYWGQGTSVTVSS VL: DIVMTQAAFSNPVTLGTSGSISCRSSKSLLHSNGITYLYWYLQKPGQSPQLLIYQMSNLASGVPDRFSSSGSGTDFTLRISRVEAEDVGVYYCAQNLELPRTFGGGTKLEMKR"
–,no binding,"ING-1 heavy chain T30G (Fab, V domains shown) VH: QIQLVQSGPELKKPGETVKISCKASGYTFGKYGMNWVKQAPGKGLKWMGWINTYTEEPTYGDDFKGRFAFSLETSASTANLQINNLKSEDTATYFCARFGSAVDYWGQGTSVTVSS VL: DIVMTQAAFSNPVTLGTSGSISCRSSKSLLHSNGITYLYWYLQKPGQSPQLLIYQMSNLASGVPDRFSSSGSGTDFTLRISRVEAEDVGVYYCAQNLELPRTFGGGTKLEMKR"
2,–,"ING-1 heavy chain T30Y (Fab, V domains shown) VH: QIQLVQSGPELKKPGETVKISCKASGYTFYKYGMNWVKQAPGKGLKWMGWINTYTEEPTYGDDFKGRFAFSLETSASTANLQINNLKSEDTATYFCARFGSAVDYWGQGTSVTVSS VL: DIVMTQAAFSNPVTLGTSGSISCRSSKSLLHSNGITYLYWYLQKPGQSPQLLIYQMSNLASGVPDRFSSSGSGTDFTLRISRVEAEDVGVYYCAQNLELPRTFGGGTKLEMKR"
–,no binding,"ING-1 heavy chain T53F (Fab, V domains shown) VH: QIQLVQSGPELKKPGETVKISCKASGYTFTKYGMNWVKQAPGKGLKWMGWINFYTEEPTYGDDFKGRFAFSLETSASTANLQINNLKSEDTATYFCARFGSAVDYWGQGTSVTVSS VL: DIVMTQAAFSNPVTLGTSGSISCRSSKSLLHSNGITYLYWYLQKPGQSPQLLIYQMSNLASGVPDRFSSSGSGTDFTLRISRVEAEDVGVYYCAQNLELPRTFGGGTKLEMKR"
0.9,–,"ING-1 heavy chain P58N (Fab, V domains shown) VH: QIQLVQSGPELKKPGETVKISCKASGYTFTKYGMNWVKQAPGKGLKWMGWINTYTEENTYGDDFKGRFAFSLETSASTANLQINNLKSEDTATYFCARFGSAVDYWGQGTSVTVSS VL: DIVMTQAAFSNPVTLGTSGSISCRSSKSLLHSNGITYLYWYLQKPGQSPQLLIYQMSNLASGVPDRFSSSGSGTDFTLRISRVEAEDVGVYYCAQNLELPRTFGGGTKLEMKR"
–,no binding,"ING-1 heavy chain T53H (Fab, V domains shown) VH: QIQLVQSGPELKKPGETVKISCKASGYTFTKYGMNWVKQAPGKGLKWMGWINHYTEEPTYGDDFKGRFAFSLETSASTANLQINNLKSEDTATYFCARFGSAVDYWGQGTSVTVSS VL: DIVMTQAAFSNPVTLGTSGSISCRSSKSLLHSNGITYLYWYLQKPGQSPQLLIYQMSNLASGVPDRFSSSGSGTDFTLRISRVEAEDVGVYYCAQNLELPRTFGGGTKLEMKR"
–,no binding,"ING-1 heavy chain N52R (Fab, V domains shown) VH: QIQLVQSGPELKKPGETVKISCKASGYTFTKYGMNWVKQAPGKGLKWMGWIRTYTEEPTYGDDFKGRFAFSLETSASTANLQINNLKSEDTATYFCARFGSAVDYWGQGTSVTVSS VL: DIVMTQAAFSNPVTLGTSGSISCRSSKSLLHSNGITYLYWYLQKPGQSPQLLIYQMSNLASGVPDRFSSSGSGTDFTLRISRVEAEDVGVYYCAQNLELPRTFGGGTKLEMKR"
–,no binding,"ING-1 heavy chain N52S (Fab, V domains shown) VH: QIQLVQSGPELKKPGETVKISCKASGYTFTKYGMNWVKQAPGKGLKWMGWISTYTEEPTYGDDFKGRFAFSLETSASTANLQINNLKSEDTATYFCARFGSAVDYWGQGTSVTVSS VL: DIVMTQAAFSNPVTLGTSGSISCRSSKSLLHSNGITYLYWYLQKPGQSPQLLIYQMSNLASGVPDRFSSSGSGTDFTLRISRVEAEDVGVYYCAQNLELPRTFGGGTKLEMKR"
–,no binding,"ING-1 heavy chain N52Y (Fab, V domains shown) VH: QIQLVQSGPELKKPGETVKISCKASGYTFTKYGMNWVKQAPGKGLKWMGWIYTYTEEPTYGDDFKGRFAFSLETSASTANLQINNLKSEDTATYFCARFGSAVDYWGQGTSVTVSS VL: DIVMTQAAFSNPVTLGTSGSISCRSSKSLLHSNGITYLYWYLQKPGQSPQLLIYQMSNLASGVPDRFSSSGSGTDFTLRISRVEAEDVGVYYCAQNLELPRTFGGGTKLEMKR"
–,no binding,"ING-1 heavy chain N52Q (Fab, V domains shown) VH: QIQLVQSGPELKKPGETVKISCKASGYTFTKYGMNWVKQAPGKGLKWMGWIQTYTEEPTYGDDFKGRFAFSLETSASTANLQINNLKSEDTATYFCARFGSAVDYWGQGTSVTVSS VL: DIVMTQAAFSNPVTLGTSGSISCRSSKSLLHSNGITYLYWYLQKPGQSPQLLIYQMSNLASGVPDRFSSSGSGTDFTLRISRVEAEDVGVYYCAQNLELPRTFGGGTKLEMKR"
